# Measured values as given in patent US20060073148A1.
# B1: antibody with the murine heavy chain of MJ2-7 and a humanized light chain (antibody, part only; not given: humanized light chain, V domains shown, part only)
# VH: EVQLQQSGAELVKPGASVKLSCTGSGFNIKDTYIHWVKQRPEQGLEWIGRIDPANDNIKYDPKFQGKATITADTSSNTAYLQLNSLTSEDTAVYYCARSEENWYDFFDYWGQGTTLTVSS
# Experiments:
# [1] = molecular target: cynomolgus monkey IL-13 (NHP IL-13), recombinant (cynomolgus monkey); test: cell-based or functional assay
# [2] = molecular target: native human IL-13 (crude preparation from activated human cord blood Th2 cells) (human) (UniProt P35225); test: cell-based or functional assay
# native human IL-13 (crude preparation from activated human cord blood Th2 cells) (human), sequence (P35225 other isoform, or with tags, fused parts or gaps, form in doubt): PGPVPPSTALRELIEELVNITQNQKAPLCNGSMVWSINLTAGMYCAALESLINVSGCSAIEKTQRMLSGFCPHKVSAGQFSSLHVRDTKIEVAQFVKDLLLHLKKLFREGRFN
# cynomolgus monkey IL-13 (NHP IL-13), recombinant (cynomolgus monkey), sequence (Q5I6E4 other isoform, or with tags, fused parts or gaps): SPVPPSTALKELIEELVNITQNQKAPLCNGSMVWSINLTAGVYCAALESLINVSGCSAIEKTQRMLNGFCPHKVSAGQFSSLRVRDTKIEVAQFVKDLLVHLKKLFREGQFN
binder,measurement,setting,value
B1,"IC50, CD23 expression assay",[1],0.308 nM
same,"IC50, STAT6 phosphorylation assay",[2],0.554 nM
